# Positions of bridges follow the written chain, without caps; N, C: chain ends. Residues, ends and D or L forms follow the SMILES beside them.
# Assays:
# [1] = Blood-brain barrier crossing after application to the dural surface of the auditory midbrain; details: mouse, in vivo
# Experimental: The peptide can shuttle both itself and small molecule cargo across the blood-brain barrier of the mammalian brain. […] High dose application supports these peptides' use for suppressing audiogenic seizures, while the lower dose supports these peptides' use for reducing the effects of age-related hearing loss.
# When this compound was applied to the dura, fluorescence could be seen at ˜1200 microns in depth after 8 hours.
# [2] = test system: inferior colliculus neurons; details: topical 1 μL of 10 μM stock on surface of IC, 5 hours post-application, N=5 mice
# [3] = target: T1, human BKα channel (ZERO isoform) (Homo sapiens, UniProt Q12791); experiment: Patch-clamp recordings of human BKα channels (ZERO isoform) expressed in HEK293 cells, inside-out patches; format: cell-based
# T1 construct: expressed in transfected cells; host or cells: HEK293
# Experimental: FIGS. 6A-6H. LS3 alters the gating of human BK channels. Human BKα channels (ZERO isoform) expressed in HEK293 cells were recorded in inside-out patches. Peptide was applied by diffusion to the extracellular side. Intracellular calcium held at 750 nM. […] FIGS. 6C-6E, Bar graphs displaying the post-peptide Po relative to the starting Po across LS3 concentrations. […] FIG. 6F-6H, Bar graphs displaying the post-peptide Po relative to the starting Po for either 500 nM LS3 (cyclic) or 500 nM of the reduced form of LS3 (linear).
# FIGS. 7A-7C. LS3 alters open and closed dwell times of the human BK channel. Single human BKα channels (ZERO isoform) expressed in HEK293 cells were recorded in inside-out patches. Intracellular calcium held at 750 nM. FIGS. 7A-7C, Bar graphs showing one example of changes in open and closed dwell times before (red) and after (black) 500 nM LS3 (100 mV). Channel open dwell times shortened (FIG. 7A).
# FIGS. 11A-11C. The 9-amino acid peptides with an N- and C-terminal disulfide bond express motifs that were highly enriched in a screen for BK channel targeted peptides (FIG. 11A). […] 60 mV shown. N=6-12. Dotted line indicates baseline (FIGS. 11B and 11C).
# FIGS. 13A-1, 13A-2, 13B, 13C-1, 13C-2, 13D-1, and 13D-2. […] Single human BKα (ZERO isoform) channels expressed in HEK293 cells were recorded in inside-out patches before and after 500 nM LS10. Intracellular calcium held at 750 nM. FIGS. 13A-1 and 13A-2: open dwell times before (FIG. 13A-1) and after (FIG. 13A-2) LS10 for a representative recording at 100 mV. Single exponential fit, red line. FIG. 13B: the mean change in peak open dwell times in response to LS10. Paired Student's t-tests compared the pre- and post-peptide peak open durations, *p<0.05, N=5-6). FIGS. 13C-1 and 13C-2: closed dwell times before (FIG. 13C-1) and after (FIG. 13C-2) LS10 for a representative recording at 100 mV. […] Three component exponential fits (gray dotted-lines) and summation (red lines) also indicated. FIGS. 13D-1 and 13D-2: the mean change in peak short (FIG. 13D-1) and long (FIG. 13D-2) duration closed dwell times in response to LS10. Paired Student's t-tests compared the pre- and post-peptide peak open durations, *p<0.05, N=6.
# (§1) HEK293 cells (ATCC, Manassas, Va.) were grown according to standard procedures. Cells were cultured at 37° C. in a 5% CO2 atmosphere in Dulbecco's modified Eagle's medium with 1-glutamine, sodium pyruvate and 10% fetal bovine serum (Invitrogen). Cell lines were split with trypsin/EDTA in Hanks' balanced salt solution (Invitrogen) up to 25-30 cycles. For phage display, stable lines stably expressed rSK2 or hBKα ZERO isoform. Cells were transfected (Lipofectamine 2000, Invitrogen) with hGlyRα1 and used 48 hours later. For electrophysiological recordings, cells were transfected with the hBKα ZERO or STREX isoform. Enhanced green fluorescent protein (EGFP) was cotransfected as a marker. Electrophysiological recordings were made 16-72 h after transfection. Although the profile of BK channel composition varies from tissue to tissue, the ZERO BK channel splice variant is widely expressed, particularly in the nervous system, serving as a representative form for studying the modulation of BK channel gating.
# Voltage-clamp recordings were performed at room temperature (22-24° C.) using an inside-out configuration on patches pulled from HEK293 cells. The extracellular solution contained the following (in mM): 2 KCl, 136 KOH, 20 Hepes, 2 MgCl2, adjusted to pH 7.2 with MeSO3H. In order to apply peptide to the extracellular surface, patch electrodes (7-20 MΩ in resistance) were tip filled with normal extracellular solution and backfilled with extracellular solution containing LS3. Enough normal extracellular solution was included to provide at least five minutes of peptide-free recording (determined by plotting Po vs. time). The intracellular solution (in the bath) contained the following (in mM): 6 KCl, 132 KOH, 20 Hepes, adjusted to pH 7.2 with MeSO3H. […]
# [4] = target: T2, human BKα channel (STREX isoform) (Homo sapiens, UniProt Q12791); experiment: Patch-clamp recordings of human BKα channels (STREX isoform) expressed in HEK293 cells, inside-out patches; format: cell-based; details: 500 nM, 100 mV, intracellular calcium 750 nM
# T2 construct: expressed in transfected cells; host or cells: HEK293
# Experimental: (§2) FIGS. 12A, 12B-1, 12B-2, 12C, 12D, and 12E. […] FIGS. 12B-1 and 12B-2: representative three second traces at 100 mV before and after LS10 (500 nM). […] BKα channels expressed in HEK293 cells were recorded in inside-out patches. Intracellular calcium held at 750 nM. […] SLO-1 channels expressed in oocytes cells were recorded in inside-out patches. Intracellular calcium held at 5 μM.
# as §1, with “Electrophysiological recordings were made 16-72 h after transfection. Although the profile of BK channel composition varies from tissue to tissue, the ZERO BK channel splice variant is widely expressed, particularly in the nervous system, serving as a representative form for studying the modulation of BK channel gating.” left out
# Voltage-clamp recordings were performed at room temperature (22-24° C.) using an inside-out configuration on patches pulled from HEK293 cells. […] Enough normal extracellular solution was included to provide at least five minutes of peptide-free recording (determined by plotting Po vs. time). […]
# worm BK channel (SLO-1) = target: T3, worm BK channel (SLO-1) (Caenorhabditis elegans, UniProt Q95V25); experiment: Inside-out patch recordings of SLO-1 channels expressed in oocytes; format: cell-based, C. elegans; details: 100 mV, intracellular calcium 5 μM
# T3 construct: expressed in transfected cells
# Experimental: as §2
# FIGS. 14A-1, 14A-2, and 14B. LS10 prevents the potentiation of BK channels by acute ethanol exposure. SLO-1 channels expressed in oocytes cells were recorded in inside-out patches before. Intracellular calcium held at 5 μM. FIGS. 14A-1 and 14A-2: representative three second traces at 100 mV before (upper traces) and after (lower traces) bath application of 50 mM ethanol. […] FIG. 14B: mean Po change in response to ethanol for control recordings (open bars) and in the presence of LS10 (shaded bars). Paired Student's t-tests compared the Po before and after ethanol, *p<0.05, N=5.
# smooth muscle = experiment: Ex vivo preparations of bladder
# T1 sequence (Q12791 1-1178 isoform Q12791-5): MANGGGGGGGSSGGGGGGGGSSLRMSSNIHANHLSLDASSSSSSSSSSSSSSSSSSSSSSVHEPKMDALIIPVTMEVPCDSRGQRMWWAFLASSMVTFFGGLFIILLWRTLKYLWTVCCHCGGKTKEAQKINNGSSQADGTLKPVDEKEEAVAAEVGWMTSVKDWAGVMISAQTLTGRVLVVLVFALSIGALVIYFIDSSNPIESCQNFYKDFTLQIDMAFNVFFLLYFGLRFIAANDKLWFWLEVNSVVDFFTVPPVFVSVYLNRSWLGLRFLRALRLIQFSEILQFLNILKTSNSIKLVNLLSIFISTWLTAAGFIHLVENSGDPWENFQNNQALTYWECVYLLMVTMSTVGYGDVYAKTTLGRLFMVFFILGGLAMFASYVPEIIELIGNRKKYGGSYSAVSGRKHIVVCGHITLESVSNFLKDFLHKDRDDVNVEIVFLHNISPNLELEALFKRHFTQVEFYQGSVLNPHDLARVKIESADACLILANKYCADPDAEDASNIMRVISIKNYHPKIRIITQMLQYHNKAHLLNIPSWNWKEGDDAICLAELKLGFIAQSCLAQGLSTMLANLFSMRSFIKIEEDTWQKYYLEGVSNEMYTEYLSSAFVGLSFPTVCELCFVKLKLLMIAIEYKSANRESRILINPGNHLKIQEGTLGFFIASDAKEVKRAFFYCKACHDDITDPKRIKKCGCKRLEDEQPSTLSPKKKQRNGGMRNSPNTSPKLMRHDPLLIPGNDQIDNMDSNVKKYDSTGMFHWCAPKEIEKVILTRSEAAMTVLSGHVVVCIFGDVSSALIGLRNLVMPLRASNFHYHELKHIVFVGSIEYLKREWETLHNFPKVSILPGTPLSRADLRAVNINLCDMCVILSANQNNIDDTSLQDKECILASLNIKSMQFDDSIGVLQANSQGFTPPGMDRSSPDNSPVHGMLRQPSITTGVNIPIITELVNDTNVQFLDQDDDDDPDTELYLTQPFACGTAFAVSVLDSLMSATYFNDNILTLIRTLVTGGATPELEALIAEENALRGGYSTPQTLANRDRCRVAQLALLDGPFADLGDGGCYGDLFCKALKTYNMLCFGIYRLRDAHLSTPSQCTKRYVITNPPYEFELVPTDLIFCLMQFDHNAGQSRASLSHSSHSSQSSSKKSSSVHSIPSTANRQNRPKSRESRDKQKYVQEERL
# T3 sequence (Q95V25 whole entry): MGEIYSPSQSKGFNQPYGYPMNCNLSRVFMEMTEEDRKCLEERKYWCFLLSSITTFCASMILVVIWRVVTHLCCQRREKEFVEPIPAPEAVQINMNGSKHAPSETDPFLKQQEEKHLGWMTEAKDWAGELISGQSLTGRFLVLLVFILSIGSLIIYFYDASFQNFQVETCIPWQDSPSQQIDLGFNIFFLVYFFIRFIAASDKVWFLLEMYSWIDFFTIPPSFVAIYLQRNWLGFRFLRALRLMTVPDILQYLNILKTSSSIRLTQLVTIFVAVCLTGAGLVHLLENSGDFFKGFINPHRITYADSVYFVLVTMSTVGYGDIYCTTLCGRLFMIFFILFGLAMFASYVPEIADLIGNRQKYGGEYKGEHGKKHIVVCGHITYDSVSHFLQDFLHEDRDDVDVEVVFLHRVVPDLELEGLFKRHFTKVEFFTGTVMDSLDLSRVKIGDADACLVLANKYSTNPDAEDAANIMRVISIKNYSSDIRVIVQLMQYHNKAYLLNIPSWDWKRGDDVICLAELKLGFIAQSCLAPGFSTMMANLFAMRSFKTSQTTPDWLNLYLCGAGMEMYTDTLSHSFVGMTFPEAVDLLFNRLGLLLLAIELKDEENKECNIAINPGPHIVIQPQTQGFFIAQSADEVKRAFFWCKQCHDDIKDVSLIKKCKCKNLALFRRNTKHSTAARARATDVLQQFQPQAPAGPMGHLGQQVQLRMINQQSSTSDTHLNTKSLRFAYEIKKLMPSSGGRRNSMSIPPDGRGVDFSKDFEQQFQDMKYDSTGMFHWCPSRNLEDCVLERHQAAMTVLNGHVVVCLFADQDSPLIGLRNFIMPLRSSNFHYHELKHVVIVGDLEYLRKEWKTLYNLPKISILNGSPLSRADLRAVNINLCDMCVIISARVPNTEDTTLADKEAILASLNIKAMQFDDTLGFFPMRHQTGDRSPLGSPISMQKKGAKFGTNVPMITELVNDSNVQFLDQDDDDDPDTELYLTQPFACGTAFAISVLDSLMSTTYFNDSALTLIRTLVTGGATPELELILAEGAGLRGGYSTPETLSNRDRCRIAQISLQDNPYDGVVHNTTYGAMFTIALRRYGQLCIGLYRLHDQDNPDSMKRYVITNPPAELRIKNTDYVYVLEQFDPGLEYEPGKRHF
# T2 sequence (Q12791 whole entry, canonical isoform): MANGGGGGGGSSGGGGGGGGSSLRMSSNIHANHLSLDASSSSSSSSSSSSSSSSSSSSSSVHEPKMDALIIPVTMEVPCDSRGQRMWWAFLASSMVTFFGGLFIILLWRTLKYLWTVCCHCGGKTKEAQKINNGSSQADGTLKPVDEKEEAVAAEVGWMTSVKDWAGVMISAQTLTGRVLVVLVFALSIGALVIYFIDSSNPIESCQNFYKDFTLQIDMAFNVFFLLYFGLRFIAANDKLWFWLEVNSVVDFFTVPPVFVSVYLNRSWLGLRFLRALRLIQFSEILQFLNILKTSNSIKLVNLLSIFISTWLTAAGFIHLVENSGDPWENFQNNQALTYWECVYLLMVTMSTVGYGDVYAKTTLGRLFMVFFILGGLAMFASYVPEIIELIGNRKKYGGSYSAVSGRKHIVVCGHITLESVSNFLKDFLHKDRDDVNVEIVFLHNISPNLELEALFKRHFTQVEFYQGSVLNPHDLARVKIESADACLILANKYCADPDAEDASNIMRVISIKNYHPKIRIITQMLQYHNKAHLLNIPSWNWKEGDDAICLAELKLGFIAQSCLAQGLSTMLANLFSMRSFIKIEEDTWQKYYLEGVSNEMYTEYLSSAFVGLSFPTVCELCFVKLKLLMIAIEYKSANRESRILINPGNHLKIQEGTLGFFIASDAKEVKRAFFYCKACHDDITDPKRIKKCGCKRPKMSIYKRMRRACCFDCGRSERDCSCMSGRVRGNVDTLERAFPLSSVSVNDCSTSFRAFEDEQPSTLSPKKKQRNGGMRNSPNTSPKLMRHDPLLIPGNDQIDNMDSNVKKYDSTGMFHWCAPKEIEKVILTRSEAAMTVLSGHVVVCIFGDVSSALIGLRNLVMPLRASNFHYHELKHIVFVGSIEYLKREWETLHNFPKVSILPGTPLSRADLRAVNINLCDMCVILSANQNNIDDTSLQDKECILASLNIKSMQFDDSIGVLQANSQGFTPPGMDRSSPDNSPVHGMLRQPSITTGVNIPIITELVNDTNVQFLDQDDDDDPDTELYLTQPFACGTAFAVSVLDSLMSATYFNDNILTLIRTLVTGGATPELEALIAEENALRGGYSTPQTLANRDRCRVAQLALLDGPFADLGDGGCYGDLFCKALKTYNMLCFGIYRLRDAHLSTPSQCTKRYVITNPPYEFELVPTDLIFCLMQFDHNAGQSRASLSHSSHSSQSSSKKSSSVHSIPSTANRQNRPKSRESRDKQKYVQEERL
compound,measurement,setting,value
"CC(C)[C@@H]1NC(=O)CNC(=O)[C@H](CCCNC(=N)N)NC(=O)[C@H](C)NC(=O)[C@@H](N)CSSC[C@@H](C(=O)O)NC(=O)[C@H](C(C)C)NC(=O)[C@H](CCCNC(=N)N)NC(=O)[C@H](Cc2ccc(O)cc2)NC1=O [LS1, CARGVYRVC] (H-CARGVYRVC-OH; disulfide 1-9; N-terminus and C-terminus assumed)",crossing of the blood-brain barrier,[1],able to cross the blood-brain barrier
CC(C)(O)[C@H]1O[C@H]2CC[C@@]3(C)[C@@](O)(CC[C@H]4Cc5c([nH]c6ccccc56)[C@@]43C)C2=CC1=O [paxilline],reduction in sound driven activity,[2],87%
"reduced form of LS3 (linear): the reduced form of LS3 (linear), without the disulfide bridge (CRRGLVQVC; cyclised or stapled)",post-peptide Po relative to the starting Po,"[3]; 500 nM, linear vs cyclic form",did not alter Po
CAVGRLAVC (pskan10/LS10 peptide),change in probability of opening (Po),[4],little change in the probability of opening
same,open dwell times / mean open times,"[3]; 500 nM peptide, single channels, intracellular calcium 750 nM, each holding voltage",shortens open dwell times
same,closed dwell times,"[3]; 500 nM peptide, three-component exponential fits, intracellular calcium 750 nM",Half of the recordings showed a lengthening in closed times
same,mean open times,"[3]; 500 nM, 60 mV",reduce mean open times
same,change in probability of opening (Po),"[3]; 500 nM, 100 mV, intracellular calcium 750 nM",little change in the probability of opening
same,change in probability of opening (Po),worm BK channel (SLO-1); 500 nM,significant reduction in the probability of opening
same,potentiation of the probability of opening (Po) by ethanol,"worm BK channel (SLO-1); 50 mM ethanol, 500 nM peptide",blocked
"CC(C)C[C@@H]1NC(=O)CNC(=O)[C@H](CCCNC(=N)N)NC(=O)[C@H](CCCNC(=N)N)NC(=O)[C@@H](N)CSSC[C@@H](C(=O)O)NC(=O)[C@H](C(C)C)NC(=O)[C@H](CCC(N)=O)NC(=O)[C@H](C(C)C)NC1=O [LS3, CRRGLVQVC] (H-CRRGLVQVC-OH; disulfide 1-9; N-terminus and C-terminus assumed)",crossing of the blood-brain barrier,[1],can cross the blood-brain barrier
same,IC50,[3]; suppression of channel openings,low hundreds
same,anti-BK channel activity in smooth muscle,smooth muscle,does not show typical anti-BK channel activity in smooth muscle

# Reference: US11214595B2, “BK channel-modulating peptides and their use” (UNIVERSITY OF SOUTH FLORIDA, priority 2016, dated 2022)
